Reference: patent US20200261603A1 (published 2020)
Substitutions are numbered along the chain they refer to. Where two headings read alike, the source gives them in different places.

B1: P10-1 Fab (Fab, V domains shown)
VH: QVQLVQSGAEVKKPGASVKVSCKASGYTFTNYGLSWVRQAPGQGLEWMGENHPGSGIIYHNEKFRGRVTLTADRSTSTAYMELSSLRSEDTAVYYCARSSGTRGFAYWGQGTLVTVSS
VL: DVVMTQTPLSLSVTPGQPASISCRSSQSIVHSNGNTYLEWYLQKPGQSPQLLIYRVSNRFSGVPDRFSGSGSGTDFTLKISRVEAEDVGVYYCFQGSHGPWTFGQGTKLEIKR
B2: P10-1 Fab Dye (Fab, V domains shown)
VH: B1 VH
VL: B1 VL
modifications: IRDye800CW (NHS ester) on Lys of the Fab fragment; number and positions not stated
B3: P10-2 Fab Dye (Fab, V domains shown)
VH: B1 VH with A106D
VL: B1 VL
modifications: IRDye800CW (NHS ester) on Lys of the Fab fragment; number and positions not stated; IRDye800CW (NHS ester) on Lys of the Fab fragment; number and positions not stated; N-terminal glutamine largely pyroglutamic acid
B4: P10-2 Fab (Fab, V domains shown)
VH: B1 VH with A106D
VL: B1 VL
modifications: heavy chain N-terminal glutamine was modified into pyroglutamic acid in a great majority of purified antibodies
B5: P10-2 Fab DFO (Fab, V domains shown)
VH: B1 VH with A106D
VL: B1 VL
modifications: p-SCN-Bn-deferoxamine on Lys of the Fab fragment; number and positions not stated; p-SCN-Bn-deferoxamine on Lys of the Fab fragment; number and positions not stated; N-terminal glutamine largely pyroglutamic acid

Legend:
[1] = target: T1, human cancer-specific MUC1 (human, UniProt P15941 24-1255, cancer-specific incomplete O-glycosylation (T, Tn, 2,3ST) of threonine at position 9 of the 20-amino acid tandem repeat … (SEQ ID NO: 15), as the background describes it); assay: Cell ELISA
[2] = target: T1, human cancer-specific MUC1; assay: Cell ELISA; remark: listed apart in the source

Row | Binder | Kd [1] | Kd [2]
1 | B1 | 0.35 nM | 
2 | B2 | 0.66 nM | 
3 | B3 | 0.49 nM | 
4 | B4 | 0.29 nM | 0.37 nM
5 | B5 |  | 0.36 nM
